The series relates to MS2 coat protein. Description: apparent KD of MS2 coat protein; designed switch direction (-1 OFF switch, 1 ON switch): -1; higher = weaker reporter binding. In outline: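 Designed RNA switches with common flanks were made on Illumina chips by stalled E. coli RNA polymerase. Titration with SNAP-549-labelled MS2 coat protein doubled from 0.7 or 1.5 nM up to 3 µM. Apparent KD is each design's median over clusters after curve-fitting normalised fluorescence.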

Setting [1] is: Eterna round: R95, input ligand: microRNA oligo, concentration not stated.
The mark [2] stands for this setting: Eterna round: R95, input ligand: FMN 200 uM.
The mark [3] stands for this setting: Eterna round: R95, input ligand: none.
The mark [4] stands for this setting: input ligand: microRNA oligo, concentration not stated.

With “UUUUUGUGAGGAUAUUAGUAGUAAAUAAAUAAAAUUACUACUGAGAAGGCACAUGAGGAUCACCCAUGUUCCUC [salish99_ex4_r3_068] (puzzle: Exclusion 4)”, the “apparent KD of MS2 coat protein” value under setting [1] was 33.2 nM.
Turning to “GGGAUGUGAGGAUAUCGAGGUGCAAAGCACCUAAAAGAAAACGAGAAGGCACAUGAGGAUCACCCAUGUAAUAC [Xeinle] (puzzle: Exclusion 4)”, the “apparent KD of MS2 coat protein” value under setting [2] was found to be 105 nM, the “apparent KD of MS2 coat protein” value under setting [1] is 26 nM and the “apparent KD of MS2 coat protein” value under setting [3] was determined as 26 nM.
For “GCAGGUUAAGUCAGGAUAUACCUAUGGAUACAUAGGUAGAAGGGACAUGAGGAUCACCCAUGUGCCUCACCUGC [Mod of Eli - Jieux - Brourd's mod of Exclusion 4] (Eterna round: R97, puzzle: Brourd's mod of Exclusion 4)”, the “apparent KD of MS2 coat protein” value reads like this: (input ligand: FMN 200 uM) 109 nM; (input ligand: none) 26.1 nM.
Turning to “AACUGUACAGGAUAUACAUGAGGAUCACCCAUGUGAGAAUUAAGUGGAGAACCACAAAGUAGAAGGGUACAGGA [Mat - Exclusion 3 - JL mod - D17] (Eterna round: R96, puzzle: Exclusion 3)”, the “apparent KD of MS2 coat protein” value under setting [4] was 38.4 nM.
“GAGUGACAUGAGGAUCACCCAUGUGAGGAUAUCGGACGGACCAAAUUAACAAUAGAAGCGAGAAGGCACAUAAG [Exclusion 1 V11] (puzzle: Exclusion 1)”: the “apparent KD of MS2 coat protein” value under setting [2] was determined as 72.4 nM, the “apparent KD of MS2 coat protein” value under setting [1] was determined as 74.3 nM and the “apparent KD of MS2 coat protein” value under setting [3] turned out to be 81.3 nM.
For “CGGGCAGCAGGAUAUACAUAGGUCAACAGAAAUGAGUAUUGACAUGAGGAUCACCCAUGUAGAAGGGCUGUACC [Eternabot (L2) Solution 96] (Eterna round: R97, puzzle: Exclusion 2)”, the “apparent KD of MS2 coat protein” value is, setting by setting: (input ligand: FMN 200 uM) 412 nM; (input ligand: none) 391 nM.
In the case of “ACAUGAGGAUCACCCAUGUCCGGCUGGUCCGUCUCGGCUGUCGAGGAUAUGGCUCGGUGUCCGCGCUAGAAGGUGGGAGCCGGA [Aenatbe mod 75] (Eterna round: R96, puzzle: Exclusion NG 3)”, the “apparent KD of MS2 coat protein” value reads like this: (input ligand: FMN 200 uM) 56.7 nM; under setting [4], 45.1 nM; (input ligand: none) 93.5 nM.
Turning to “GUGUUACAAGUGAGGAUAUCUGCUUUGGUAGAAGCGGAGAAGGCACAUGAGGAUCACCCAUGUCAGGAGUCCAU [Eternabot (L2) Solution 20] (Eterna round: R97, puzzle: Brourd's mod of Exclusion 4)”, the “apparent KD of MS2 coat protein” value by setting is: (input ligand: FMN 200 uM) 393 nM; (input ligand: none) 59.3 nM.
For the sequence “AAUAACAGAGGAUAUACUGUUUUAUGUGUUUGUUGUUUUGAACAUGAGGAUCACCCAUGUAGAAGGCUGAGUAA [JMF 41] (puzzle: Exclusion 2)”, under setting [1], the “apparent KD of MS2 coat protein” value turned out to be 22.9 nM.
Regarding “CGCAGACGAGGAUAUAGAUGGAAUGACAUGAGGAUCACCCAUGUGAUCGAUCUAUUGGGUUUAGAAGGUGUCUGCG [JR_Ex5_Sub046] (Eterna round: R97, puzzle: Exclusion 5)”, the “apparent KD of MS2 coat protein” value came to 14.4 nM (input ligand: FMN 200 uM) and 15.2 nM (input ligand: none).
In the case of “ACAAGCUUUGAGUUCGUCUUAUACACUCCUAAUAAGAAAACAUGAGGAUCACCCAUGUAAGAAAUAAGAACUCAUGU [Sesor Array 3 - Jieux - Sensor v3, turn-off variant 2] (puzzle: Sensor v3, turn-off variant 2)”, the “apparent KD of MS2 coat protein” value is, setting by setting: under setting [2], 25.5 nM; under setting [1], 291 nM; under setting [3], 27.8 nM.
For the sequence “CUUUCGUGAGGAUAUCAGUAGUAAAAAAAUAAAAUUACUACUGAGAAGGCACAUGAGGAUCACCCAUGUUCCUC [salish99_ex3_r3_097] (puzzle: Exclusion 4)”, the “apparent KD of MS2 coat protein” value under setting [1] amounted to 25.7 nM.
Regarding “UUUUGGCAAGCGAGAUCCGACAUGAGGAUCACCCAUGUGCGGGCCCGAAAAGGGCCCGCGGUUGCUCGUCUUGUGUG [free energy optimized] (Eterna round: R97, puzzle: Sensor, turn-off variant 1)”, the “apparent KD of MS2 coat protein” value runs as follows: (input ligand: FMN 200 uM) 15.7 nM; (input ligand: none) 16.9 nM.

Values taken from the supplement of paper PMC9170038.
